Our source for the Kd values is paper PMC9352680, “A comprehensive thermodynamic model for RNA binding by the Saccharomyces cerevisiae Pumilio protein PUF4”.

T1: PUF4 RNA-binding domain (Saccharomyces cerevisiae, UniProt P25339 537-888)
T1 sequence: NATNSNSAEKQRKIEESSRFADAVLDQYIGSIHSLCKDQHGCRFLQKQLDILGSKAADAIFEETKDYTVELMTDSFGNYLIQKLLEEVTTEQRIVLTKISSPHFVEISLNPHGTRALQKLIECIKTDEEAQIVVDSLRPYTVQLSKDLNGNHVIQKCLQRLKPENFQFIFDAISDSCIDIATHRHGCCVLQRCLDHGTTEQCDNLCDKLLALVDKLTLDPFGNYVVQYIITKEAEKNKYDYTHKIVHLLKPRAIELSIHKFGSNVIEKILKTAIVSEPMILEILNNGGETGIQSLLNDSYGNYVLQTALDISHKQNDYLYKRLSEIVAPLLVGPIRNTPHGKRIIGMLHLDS

The data set addresses T1, PUF4 RNA-binding domain. As to the kind of experiment: Mg; RNA-MaP; 20 mM Na-HEPES pH 7.4, 30 mM KOAc, 0.75 mM MgCl2, 0.1% Tween-20, 5% glycerol, 0.1 mg/mL BSA, 2 mM DTT; 25 C; 0.0125-409.6 nM protein. Particulars: tags: N-His6-TEV cleaved; C-SNAP kept, Cy3B-labelled; label: tethered on chip by stalled RNA polymerase.
What is called Kd is the constant that tells how readily two partners part at equilibrium. Consider ACAAACUCUAUAUAUACCACAAAC (ssRNA) [Id_ii_S3_P3E.3_K3.2_C3.2_[C-2T]_[T-1C]_H3.2_A3.1_F3.1_T3.2_[T9C]_[A10C]], for which the Kd was 771 nM. The figure for ACAAACUUUAUAUAUAUUACAAAC (ssRNA) [Id_ii_S3_P3E.3_K3.2_C3.2_[C-2T]_H3.2_A3.1_F3.1_T3.2_[A10T]] is 34.5 nM; for ACAAACGUUAUAUAUACCACAAAC (ssRNA) [Id_ii_S3_P3E.3_K3.2_C3.2_[C-2G]_H3.2_A3.1_F3.1_T3.2_[T9C]_[A10C]] it is 1700 nM. With ACAAACACUAUAUAUAUGACAAAC (ssRNA) [Id_ii_S3_P3E.3_K3.2_C3.2_[C-2A]_[T-1C]_H3.2_A3.1_F3.1_T3.2_[A10G]] the figure was 572 nM; with UCUCUUUGUAUUUUCAUCUCUU (ssRNA) [Ic_S1_P5E.1_K5.1_C5.1_H5.1_A5.1_[A7T]_F5.1_[T9C]_T5.1], 32.5 nM; with ACAAACACUAUAUAUAAAACAAAC (ssRNA) [Id_ii_S3_P3E.3_K3.2_C3.2_[C-2A]_[T-1C]_H3.2_A3.1_F3.1_T3.2_[T9A]], 1080 nM. With ACAAACAGUAUAUAUAACACAAAC (ssRNA) [Id_ii_S3_P3E.3_K3.2_C3.2_[C-2A]_[T-1G]_H3.2_A3.1_F3.1_T3.2_[T9A]_[A10C]] the figure was 522 nM. Molecule ACAAACUUUAUAUAUAAUACAAAC (ssRNA) [Id_ii_S3_P3E.3_K3.2_C3.2_[C-2T]_H3.2_A3.1_F3.1_T3.2_[T9A]_[A10T]] came in with a Kd of 149 nM. The figure for ACAAACUCUAUAUAUAUCACAAAC (ssRNA) [Id_ii_S3_P3E.3_K3.2_C3.2_[C-2T]_[T-1C]_H3.2_A3.1_F3.1_T3.2_[A10C]] is 493 nM; for UCUCUUUGUAUUCUGAUCUCUU (ssRNA) [Ib_S1_P5E.1_K5.1_C5.1_H5.1_A5.1_[A7C]_F5.1_[T9G]_T5.1] it is 60.1 nM; for ACAAACGAUAUAUAUAGUACAAAC (ssRNA) [Id_ii_S3_P3E.3_K3.2_C3.2_[C-2G]_[T-1A]_H3.2_A3.1_F3.1_T3.2_[T9G]_[A10T]] it is 62.3 nM. With ACAAACAGUAUAUAUACCACAAAC (ssRNA) [Id_ii_S3_P3E.3_K3.2_C3.2_[C-2A]_[T-1G]_H3.2_A3.1_F3.1_T3.2_[T9C]_[A10C]] the figure was 1920 nM; with ACAAACACUAUAUAUACCACAAAC (ssRNA) [Id_ii_S3_P3E.3_K3.2_C3.2_[C-2A]_[T-1C]_H3.2_A3.1_F3.1_T3.2_[T9C]_[A10C]], 816 nM; with ACAAACUUUAUAUAUAACACAAAC (ssRNA) [Id_ii_S3_P3E.3_K3.2_C3.2_[C-2T]_H3.2_A3.1_F3.1_T3.2_[T9A]_[A10C]], 522 nM. As to ACAAACACUAUAUAUAUCACAAAC (ssRNA) [Id_ii_S3_P3E.3_K3.2_C3.2_[C-2A]_[T-1C]_H3.2_A3.1_F3.1_T3.2_[A10C]], binding was put at a Kd of 541 nM. This Kd and that of the molecule before are within 1.5-fold of each other. ACAAACUCUAUAUAUAAUACAAAC (ssRNA) [Id_ii_S3_P3E.3_K3.2_C3.2_[C-2T]_[T-1C]_H3.2_A3.1_F3.1_T3.2_[T9A]_[A10T]] registered a Kd of 72 nM. Against the preceding molecule, the Kd is about 7.5-fold lower. The figure for ACAAACUAUAUAUAUACAACAAAC (ssRNA) [Id_ii_S3_P3E.3_K3.2_C3.2_[C-2T]_[T-1A]_H3.2_A3.1_F3.1_T3.2_[T9C]] is 205 nM. The figure for ACAAACUCUAUAUAUAGCACAAAC (ssRNA) [Id_ii_S3_P3E.3_K3.2_C3.2_[C-2T]_[T-1C]_H3.2_A3.1_F3.1_T3.2_[T9G]_[A10C]] is 767 nM; for ACAAACACUAUAUAUACAACAAAC (ssRNA) [Id_ii_S3_P3E.3_K3.2_C3.2_[C-2A]_[T-1C]_H3.2_A3.1_F3.1_T3.2_[T9C]] it is 735 nM. Take ACAAACACUAUAUAUAAGACAAAC (ssRNA) [Id_ii_S3_P3E.3_K3.2_C3.2_[C-2A]_[T-1C]_H3.2_A3.1_F3.1_T3.2_[T9A]_[A10G]]: binding was put at a Kd of 450 nM. Compared with the last molecule, the Kd is about 1.6-fold lower.

ACAAACGUUAUAUAUAAUACAAAC (ssRNA) [Id_ii_S3_P3E.3_K3.2_C3.2_[C-2G]_H3.2_A3.1_F3.1_T3.2_[T9A]_[A10T]] gave a Kd of 660 nM. This Kd and that of the molecule before are within 1.5-fold of each other.

In turn, ACAAACACUAUAUAUACUACAAAC (ssRNA) [Id_ii_S3_P3E.3_K3.2_C3.2_[C-2A]_[T-1C]_H3.2_A3.1_F3.1_T3.2_[T9C]_[A10T]] had a Kd of 43.8 nM. Turning to ACAAACGGUAUAUAUAGAACAAAC (ssRNA) [Id_ii_S3_P3E.3_K3.2_C3.2_[C-2G]_[T-1G]_H3.2_A3.1_F3.1_T3.2_[T9G]], the Kd worked out at 128 nM. With ACAAACGAUAUAUAUAAUACAAAC (ssRNA) [Id_ii_S3_P3E.3_K3.2_C3.2_[C-2G]_[T-1A]_H3.2_A3.1_F3.1_T3.2_[T9A]_[A10T]] the figure was 115 nM. With ACAAACGCUAUAUAUAUCACAAAC (ssRNA) [Id_ii_S3_P3E.3_K3.2_C3.2_[C-2G]_[T-1C]_H3.2_A3.1_F3.1_T3.2_[A10C]] the figure was 836 nM; with ACAAACUAUAUAUAUAACACAAAC (ssRNA) [Id_ii_S3_P3E.3_K3.2_C3.2_[C-2T]_[T-1A]_H3.2_A3.1_F3.1_T3.2_[T9A]_[A10C]], 376 nM; with ACAAACUCUAUAUAUAUUACAAAC (ssRNA) [Id_ii_S3_P3E.3_K3.2_C3.2_[C-2T]_[T-1C]_H3.2_A3.1_F3.1_T3.2_[A10T]], 39 nM.

UCUCUUUGUAUUCUCAUCUCUU (ssRNA) [Ib_S1_P5E.1_K5.1_C5.1_H5.1_A5.1_[A7C]_F5.1_[T9C]_T5.1]: the Kd worked out at 29.8 nM.
